Biological target: Lon-His (C. crescentus) (UniProt B8GX12)
Sequence of UniProt B8GX12 (B8GX12 whole entry): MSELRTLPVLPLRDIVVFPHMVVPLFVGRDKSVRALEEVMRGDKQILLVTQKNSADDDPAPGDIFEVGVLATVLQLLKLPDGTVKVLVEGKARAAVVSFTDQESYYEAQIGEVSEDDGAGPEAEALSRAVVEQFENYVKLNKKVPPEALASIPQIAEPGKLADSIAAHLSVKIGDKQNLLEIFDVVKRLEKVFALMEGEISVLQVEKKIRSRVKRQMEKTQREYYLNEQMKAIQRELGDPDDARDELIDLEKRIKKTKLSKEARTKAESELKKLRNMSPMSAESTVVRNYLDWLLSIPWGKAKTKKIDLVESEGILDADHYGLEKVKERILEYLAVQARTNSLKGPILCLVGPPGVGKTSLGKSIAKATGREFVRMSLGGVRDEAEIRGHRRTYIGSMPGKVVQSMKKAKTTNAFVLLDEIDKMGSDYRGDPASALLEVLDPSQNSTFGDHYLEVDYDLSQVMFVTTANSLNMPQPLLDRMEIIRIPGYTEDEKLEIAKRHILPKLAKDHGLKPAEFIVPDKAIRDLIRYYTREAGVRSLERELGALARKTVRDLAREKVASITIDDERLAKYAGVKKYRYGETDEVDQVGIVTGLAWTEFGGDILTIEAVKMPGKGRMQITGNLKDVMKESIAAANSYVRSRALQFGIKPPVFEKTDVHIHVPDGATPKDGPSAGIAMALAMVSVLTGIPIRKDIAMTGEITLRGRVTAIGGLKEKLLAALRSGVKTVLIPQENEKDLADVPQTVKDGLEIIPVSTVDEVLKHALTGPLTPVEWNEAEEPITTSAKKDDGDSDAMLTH

Km of His-SciP degradation by Lon-His (0.05 µM hexamer), without LarA: 9.3 µM
Substance: His-SciP (natural protein)
